Reference: US20020045191A1, “Inhibition of the SRC kinase family pathway as a method of treating HBV infection and hepatocellular carcinoma” (priority 2000, published 2002)

Experiments:
[1] = system: MAP kinase (ERK2); experiment: MAP kinase (ERK2) immunoprecipitation / MBP kinase assay in HBx-transfected Chang cells; type: cell-based, human
Procedure: (FIG. 2B) ERK2 was immunoprecipitated from equal amounts of cell lysates analyzed by in vitro phosphorylation of myelin basic protein (MBP) using [γ-^32P] ATP. […] Cells were stimulated with 100 μg/ml of insulin (Intergen) for 10 min.
To assay for MAP kinase activity, cells were lysed in freshly prepared lysis buffer (10 mM Tris HC1 pH 7.5, 1% Triton X-100, 0.5% NP-40, 1 mM EDTA, 1 mM EGTA, 1 mM Na3VO4, 50 mM NaF, 1 mM PMSF, 40 mM PPi, 10 μg/ml aprotinin, and 10 μg/ml leupeptin) and MAP kinase was immunoprecipitated using 1μg/ml anti-ERK2 antibodies from equal amounts of protein. After 4 washes with lysis buffer, and 2 with kinase buffer (20 mM Hepes pH 7.4, 10 mM MgCl2), the immunoprecipitates were incubated with kinase buffer including 0.5 mg/ml myelin basic protein (MBP, Sigma), 10 mM ATP and 5 μCi [γ-^32P]ATP for 30 minutes at 30° C. The reactions were stopped by the addition of 2× sample loading buffer (Sambrook et al. 1989, supra), resolved by 15% SDS-PAGE and visualized by autoradiography. Assays for activation of JNK MAP kinases were carried out exactly as described above, except that the immunoprecipitated JNK was incubated with 5 μg purified GST-c-Jun (Benn et al., 1996, supra) and 10 μCi [γ-^32P]ATP, and resolved by 10% SDS-PAGE.
To test whether HBx activation of the Src family of kinases is required for stimulation of Ras signaling by HBx, Chang cells were transfected at low density with plasmids expressing HBxo, HBx or HBx and Csk, serum-starved for 20 hours, 2% serum restored for 2 hours to permit protein synthesis, and activation of immunoprecipitated MAP kinase at the end of the Ras-MAP kinase cascade assayed by incubation with myelin basic protein (MBP) and [γ-^32P]ATP (FIG. 2). Expression of HBx induces a strong activation in the ability of MAP kinase to phosphorylate MBP that is abolished upon co-transfection of HBx with Csk. […]

[2] = system: AP-1; experiment: AP-1 electrophoretic mobility shift assay (EMSA), HBx-transfected Chang cells; type: cell-based, human; conditions: cotransfection of increasing amounts of Csk plasmid
Procedure: (FIG. 3A) Cell extracts were prepared for AP-1 EMSA as described (Benn et al., 1996, supra) using a ^32P-labeled dsDNA oligonucleotide probe containing one AP-1 binding site. Reactions were carried out using 3 μg of nuclear extract, labeled oligonuleotide and 1 μg of poly(dI-dC) for 30 min at 23° C. Protein-DNA complexes were resolved by electrophoresis on 4% polyacrylamide gels and visualized by PhosphorImage 5analysis. As a positive control for AP-1 stimulation, cells were treated with 20 μM TPA for 30 min.
Here it is shown that HBx activation of AP-1 DNA binding activity and AP-1 directed transcription, both involve an essential requirement for HBx activation of Src tyrosine kinases. Chang cells were transfected with plasmids expressing HBx or HBxo proteins, with or without cotransfection of Csk, serum starved and nuclear extracts prepared for electrophoretic mobility shift assay (EMSA) using equal amounts of nuclear extracts and a ^32P-labeled dsDNA probe containing one AP-1 binding site, as described (Benn et al., 1996 supra). Cotransfection of increasing amounts of the Csk expressing plasmid suppressed HBx induction of AP-1 DNA binding complexes in a titratable manner (FIG. 3A). […]

[3] = system: AP-1 dependent transcription; experiment: AP-1 dependent luciferase reporter, HBx-transfected Chang cells; type: cell-based, human; conditions: co-expression with Csk
Procedure: (FIG. 3B) Cells were transfected as above but contained in addition 3 μg of plasmid pAP-1Luc, which encodes the luciferase reporter under the control of four AP-1 binding sites and a minimal TATA box promoter. Serum starved cells were harvested 18 h after transfection and the level of expression of the luciferase reporter assayed. Results are the average of three independent experiments.
Here it is shown that HBx activation of AP-1 DNA binding activity and AP-1 directed transcription, both involve an essential requirement for HBx activation of Src tyrosine kinases. Chang cells were transfected with plasmids expressing HBx or HBxo proteins, with or without cotransfection of Csk, serum starved and nuclear extracts prepared for electrophoretic mobility shift assay (EMSA) using equal amounts of nuclear extracts and a ^32P-labeled dsDNA probe containing one AP-1 binding site, as described (Benn et al., 1996 supra). Cotransfection of increasing amounts of the Csk expressing plasmid suppressed HBx induction of AP-1 DNA binding complexes in a titratable manner (FIG. 3A). Finally, cells were cotransfected with plasmids expressing HBx or HBxo and an AP-1 dependent luciferase reporter under the control of a minimal promoter, with and without a Csk expression plasmid (FIG. 3B).

[4] = system: N-Myc; experiment: N-Myc immunoblot of nuclear extracts, HBx-transfected Chang cells; type: cell-based, human; conditions: co-expression with HBx, serum-starved 20 hours
Procedure: Chang cells were transfected with plasmids expressing HBxo, HBx, Csk, SrcK^−, FynK^−, and the dominant-negative Ras (RasN17). The Ras N17 mutant was initially shown to preferentially bind GDP in vitro and to inhibit cellular proliferation when stably expressed in NIH 3T3 cells (Feig et al., 1988, Moll. Cell Biol. 8:3235-3243). Transfected cells were serum-starved for 20 hours, nuclear extracts prepared, equal amounts of protein resolved by SDS-PAGE and immunoblotted with anti-N-Myc antibodies. Expression of transfected HBx elevates the amount of N-Myc protein 3-4 fold. […] The inability of dominant-negative Ras or Fyn proteins to block Src activation is consistent with the report by Barone and Courtneidge (1995, supra). Co-expression of HBx with the dominant-negative Ras had no effect on induction of N-Myc by HBx, and neither did the expression of dominant-negative Fyn protein. Whether other Src family members (e.g. Yes or Lyn) are involved in N-Myc induction by HBx was not tested in these experiments.

[5] = system: MAP kinase (ERK2); experiment: MAP kinase (ERK2) MBP kinase assay during WHV replication in Chang cells; type: cell-based, human; conditions: co-expression with wtWHV
Procedure: FIG. 6. Woodchuck Hepatitis B Virus (WHV) HBx protein (WHx) activates a Src-Ras signaling cascade during WHV replication in cultured cells. […] Eighteen hours post-transfection, cells were serum-starved in 0.5% CS for 20 hours, MAP kinase (ERK-2) was immunoprecipitated from equal amounts of cell lysates and pellets were subjected to an in vitro MBP kinase assay.
To assay for MAP kinase activity, cells were lysed in freshly prepared lysis buffer (10 mM Tris HC1 pH 7.5, 1% Triton X-100, 0.5% NP-40, 1 mM EDTA, 1 mM EGTA, 1 mM Na3VO4, 50 mM NaF, 1 mM PMSF, 40 mM PPi, 10 μg/ml aprotinin, and 10 μg/ml leupeptin) and MAP kinase was immunoprecipitated using 1μg/ml anti-ERK2 antibodies from equal amounts of protein. After 4 washes with lysis buffer, and 2 with kinase buffer (20 mM Hepes pH 7.4, 10 mM MgCl2), the immunoprecipitates were incubated with kinase buffer including 0.5 mg/ml myelin basic protein (MBP, Sigma), 10 mM ATP and 5 μCi [γ-^32P]ATP for 30 minutes at 30° C. […]
To determine whether WHx also requires activation of Src family kinases for stimulation of Ras signaling during ongoing viral replication, Chang cells were co-transfected with plasmids synthesizing wtWHV and dominant-negative Ras (RasDN), dominant-negative Src (SrcK^−), or Csk proteins, and activation of MAP kinase was measured. […]

[6] = system: WHV; experiment: WHV replication: Southern blot of core-associated viral DNA, Chang cells; type: cell-based, Woodchuck Hepatitis B Virus; conditions: co-expression with wtWHV, 3 days post-transfection
Procedure: FIG. 7. WHx requires activation of Src family kinase for WHV replication. Chang cells were co-transfected with 20 μg PCWHV, wtWHV, wtWHV and RasDN (dominant-negative) (10 μg), or wtWHV and Csk (10 μg). Three days post-transfection viral core-associated DNA was isolated, purified, and subjected to Southern blot analysis using a full-length ^32P-labeled WHV genomic probe.
Chang cells were transfected with infectious WHV clones, (2×10 cm plates) were washed twice with PBS and lysed in 500 μl lysis buffer/10 cm plate (20 mM Tris HCl pH 7.5, 1 mM EDTA, 100 mM NaCl, 0.5% NP-40) for 10-15 minutes. Lysates were centrifuged at 12,000× g for 30 minutes, MgCl2 was adjusted to 10 mM, DNAseI (Boehringer Mannheim) was added to 20 U/ml and the lysates were incubated at 37° C. for 2 hours. Following DNAse I treatment, the lysates were centrifuged for 5 min at 12,000× g, layered onto a 20% sucrose cushion (300 μl of 20% sucrose in 20 mM Tris HCl pH 8.0, 150 mM NaCl) and centrifuged for 178,000× g for 3 hours at 20° C. […]
Chang cells were co-transfected with plasmids encoding either wtWHV, PCWHV, wtWHV and RasDN, or wtWHV and Csk, intracellular core-associated viral DNA was isolated 3 days post-transfection, and purified viral DNA analyzed by Southern blot hybridization as described above (FIG. 7).

[7] = system: WHV; experiment: WHV RNA: Northern blot analysis, Chang cells; type: cell-based, Woodchuck Hepatitis B Virus; conditions: co-expression with wtWHV
Procedure: Chang cells were washed twice with PBS and total RNA prepared according to the manufacturer's instructions (RNeasy mini kit; Qiagen). 15 μg total RNA per sample were resolved through a 1.2% formaldehyde-agarose gel (Sambrook et al., 1989, supra), transferred to Duralon UV membrane, and pre-hybridized in Quick-Hyb solution (Stratagene) at 65° C. Hybridization to 32P-labeled full length WHV probe was carried out in the same solution at 65° C., washed as described above, and autoradiographed for 1 day.
(§1) To assess whether HBx activation of a Src signaling cascade plays an essential role in transcriptional upregulation of the viral mRNAs, Chang cells were co-transfected with wtWHV and either RasDN or Csk plasmids, and the RNA visualized by Northern analysis (FIG. 7, lanes 2 and 3). […] To ensure that the decrease in synthesis of WHV RNA by Csk was not the unforseen consequence of Csk inhibition of the CMV promoter (which drives synthesis of the WHV pregenomic RNA), control experiments assessing the effect of Csk on a CMV-βgal reporter were carried out. […] However, the WHx-induced increase in mRNA abundance (˜3-5 fold) is much less then the HBx-induced increase in viral DNA synthesis (˜20-30 fold). […] The stimulation of Src signaling cascades by HBx must therefore promote WHV replication independent of the effect of WHx on viral transcription.

[8] = system: CMV promoter; experiment: CMV-βgal reporter control (β-galactosidase activity); type: cell-based; conditions: co-expression of Csk with CMV-βgal
Excerpt: as §1

B1: Csk: protein tyrosine kinase C-terminal Src kinase, physiologic inhibitor of Src, expressed from plasmid (protein, UniProt P41240 2-450, looked up)
Tyrosine-protein kinase CSK: SAIQAAWPSGTECIAKYNFHGTAEQDLPFCKGDVLTIVAVTKDPNWYKAKNKVGREGIIPANYVQKREGVKAGTKLSLMPWFHGKITREQAERLLYPPETGLFLVRESTNYPGDYTLCVSCDGKVEHYRIMYHASKLSIDEEVYFENLMQLVEHYTSDADGLCTRLIKPKVMEGTVAAQDEFYRSGWALNMKELKLLQTIGKGEFGDVMLGDYRGNKVAVKCIKNDATAQAFLAEASVMTQLRHSNLVQLLGVIVEEKGGLYIVTEYMAKGSLVDYLRSRGRSVLGGDCLLKFSLDVCEAMEYLEGNNFVHRDLAARNVLVSEDNVAKVSDFGLTKEASSTQDTGKLPVKWTAPEALREKKFSTKSDVWSFGILLWEIYSFGRVPYPRIPLKDVVPRVEKGYKMDAPDGCPPAVYEVMKNCWHLDAAMRPSFLQLREQLEHIKTHELHL
HBx activation of ERK2 ([1]; co-expression with HBx, serum-starved in 0.5% CS for 24 hours): impaired | HBx activation of MAP kinase (phosphorylation of MBP) ([1]; co-transfection of HBx with Csk, serum-starved 20 hours, 2% serum 2 hours): abolished | activation of MAP kinase by insulin ([1]; overexpression of Csk): only slightly impaired | HBx induction of AP-1 DNA binding complexes [2]: suppressed | HBx induced activation of AP-1 dependent transcription [3]: fully blocked | increase in N-Myc protein by HBx [4]: impaired | downstream activation of MAP kinase by wtWHV [5]: efficiently inhibited | WHV replication (core-associated viral DNA) [6]: completely abolished | reduction of WHV RNA level [7]: 3-5 fold | expression of βgal protein from CMV-βgal (β-galactosidase activity) [8]: did not significantly alter
